Results taken from publication PMC9859039, “The conserved centrosomin motif, γTuNA, forms a dimer that directly activates microtubule nucleation by the γ-tubulin ring complex (γTuRC)” (eLife, 2022).

B1: Strep-His-TEV-HaloTag-3C-human γTuNA (human CDK5RAP2 aa 53–98), wildtype [human] / itself (parent)
chain: SPTRARNMKDFENQITELKKENFNLKLRIYFLEERMQQEFHGPTEH
B2: Strep-His-TEV-HaloTag-3C-Xenopus γTuNA (Xenopus Cdk5rap2 aa 56–101), wildtype [Xenopus laevis] / itself (parent)
chain: MKDFEKQIAELKKENFNLKLRIYFLEEQVQQKCDNSSEDLYRMNIE

Variants of: B1
Test: size-exclusion chromatography (self-association / dimerization)
Settings: with itself; 50 µM (monomer); Superdex 200 increase 10/300 GL; main peak, a minor peak near 12.9 mL is also drawn; read off a plot

Variant	screen value
chain 1 F11D I15D L18D	15.1 mL

Same assay, conditions: with itself; 50 µM (monomer); Superdex 200 increase 10/300 GL; main peak, a minor peak near 13.1 mL is also drawn; read off a plot

Variant	screen value
chain 1 F11A I15A L18A L25A	15 mL

Same assay, conditions: with itself; 50 µM (monomer); Superdex 200 increase 10/300 GL; read off a plot

Variant	screen value
chain 1 I15D L18D	15.1 mL
chain 1 I15A L18A	15.1 mL

Variants of: B2
Test: as above
Settings: with itself; 50 µM (monomer); Superdex 200 increase 10/300 GL; main peak, a minor shoulder near 13.2 mL is also drawn; read off a plot

Variant	screen value
chain 1 L18A	14.2 mL

Same assay, conditions: with itself; 50 µM (monomer); Superdex 200 increase 10/300 GL; read off a plot

Variant	screen value
chain 1 L18A	14.2 mL
chain 1 F4A	13.4 mL
chain 1 F16A	13.3 mL
chain 1 I8A	13.5 mL
chain 1 I8D L11D	15 mL
chain 1 L11A	14 mL
